One block for each binder: values may come before it.
Tests used:
[1] = target: T1, human PD-L1 expressed on cells (CT26 transfected with human PD-L1, HCC827, Raji-PD-L1, CHO-PDL1-OKT3) (human, UniProt Q9NZQ7 19-290); assay: cell-based or functional assay
[2] = target: T1, human PD-L1 expressed on cells (CT26 …); assay: flow cytometry on CT26 cells transfected with human PD-L1
[3] = target: T1, human PD-L1 expressed on cells (CT26 …); assay: flow cytometry on HCC827 cells naturally overexpressing PD-L1
[4] = target: T2, 人PD-L1蛋白 (human PD-L1 protein) (human, UniProt Q9NZQ7 19-238, limits assumed); assay: ELISA, human PD-L1 protein coated at 1 μg/mL, HRP secondary antibody, OD450
T2 construct: also called CD274; B7-H1
T2 sequence (Q9NZQ7 19-238 limits assumed): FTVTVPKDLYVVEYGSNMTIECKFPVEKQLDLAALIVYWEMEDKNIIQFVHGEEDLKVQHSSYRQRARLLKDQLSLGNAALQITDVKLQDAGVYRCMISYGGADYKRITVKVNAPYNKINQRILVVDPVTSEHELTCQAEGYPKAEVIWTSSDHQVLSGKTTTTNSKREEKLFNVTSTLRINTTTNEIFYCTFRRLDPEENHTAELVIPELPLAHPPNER

[5] = target: T1, human PD-L1 expressed on cells (CT26 …); assay: flow cytometry competition: inhibition of human PD-1-Fc binding to Raji-PD-L1 cells
[6] = target: T2, 人PD-L1蛋白 (human PD-L1 protein); assay: SPR, Biacore 8K, antibody captured on protein A sensor chip, PD-L1 protein as analyte
[7] = target: 食蟹猴PD-L1蛋白 (cynomolgus monkey PD-L1 protein) (cynomolgus monkey); assay: ELISA on coated cynomolgus PD-L1 protein

T1 sequence (Q9NZQ7 19-290): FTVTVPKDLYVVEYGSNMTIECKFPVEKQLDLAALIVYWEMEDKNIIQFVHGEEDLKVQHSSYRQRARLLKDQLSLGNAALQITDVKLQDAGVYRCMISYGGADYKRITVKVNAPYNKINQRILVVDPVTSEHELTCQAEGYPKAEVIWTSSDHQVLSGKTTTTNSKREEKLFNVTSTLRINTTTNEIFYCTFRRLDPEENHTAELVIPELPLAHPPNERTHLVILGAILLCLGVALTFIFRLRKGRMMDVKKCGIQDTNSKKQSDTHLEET

Jurkat-PD-1/NFAT-luciferase报告基因活性 (luciferase bioluminescence), EC50 [1]: 0.0838 µg/mL
EC50 [2]: 0.378 µg/mL
EC50 [3]: 0.0864 µg/mL
EC50 [4]: 0.0651 µg/mL
IC50 [5]: 0.298 µg/mL
Kd [6]: 0.4 nM
B1: 人源化抗体MT02-C4 (humanized anti-human PD-L1 antibody MT02-C4) (antibody, human IgG1, kappa, V domains shown)
VH: QVQLQESGPGLVKPSETLSLTCTVSGDSITSGYWSWIRQPPGKGLEYMGYISYTGSTYYSPSLIRRMTISRDTSKNQFSLKLSSVTAADTAVYYCAKYENWKEGYFDIWGQGTLVTVSS
VL: DIQMTQSPSSLSASVGDRVTITCKASQNVGINVAWYQQKPGKAPKALIYSATQRYSGVPSKFSGSGSGTDFTLTISSLQPEDFATYFCQQYYGYPLTFGQGTRLEIKR
notes: Humanized (CDR grafting with back mutations), human IgG1 / kappa

EC50 [7]: 0.0422 µg/mL
EC50 [2]: 0.209 µg/mL
EC50 [3]: 0.0445 µg/mL
EC50 [4]: 0.216 µg/mL
IC50 [5]: 0.481 µg/mL
B2: 人-鼠嵌合抗体MT02-L4 (human-mouse chimeric anti-human PD-L1 antibody MT02-L4) (antibody, human IgG1, kappa, V domains shown)
VH: EVQLQESGPSLVKPSQTLSLTCSVTGDSITSGYWSWIRKFPGNNLDYMGYISYTGSTYYSPSLIRRMSINRDTSKNQFYLQLNSVTTEDTATYYCAKYENWKEGYFDIWGAGTTVTVSS
VL: DIVMTRSQKFMSTSVGDRVSVTCKASQNVGINVAWYQQKAGQSPKALIHSATQRYSGVPDRFTGGGSGTDFTLTIDDVQSADLAEYFCQQYYGYPLTFGAGTRLELKR
notes: Mouse 13B8 variable regions joined to the human IgG1 heavy constant region and the kappa constant region

From patent publication CN111234017A (NANJING YOUMAI BIOTECHNOLOGY CO LTD, dated 2020)
